Patent publication US20240400715A1 (VIBRANT PHARMA, published 2024)
Residue numbers refer to the chain shown, from its start. “And” between values parts separate entries of the source, which are not always exact repeats. Equal entries are not always repeated.

B1: 308 (TA3), configuration of FIG. 1X (bispecific antibody, IgG4)
heavy: EVQLVESGGGLVQPGGSLRLSCAASGYSFTGYTMNWVRQAPGKGLEWVALINPYKGVSTYNQKFKDRFTISVDKSKNTAYLQMNSLRAEDTAVYYCARSGYYGDSDWYFDVWGQGTLVTVSSASTKGPSVFPLAPCSRSTSESTAALGCLVKDYFPEPVTVSWNSGALTSGVHTFPAVLQSSGLYSLSSVVTVPSSSLGTKTYTCNVDHKPSNTKVDKRVESKYGPPCPPCPAPEAAGGPSVFLFPPKPKDTLMISRTPEVTCVVVDVSQEDPEVQFNWYVDGVEVHNAKTKPREEQFNSTYRVVSVLTVLHQDWLNGKEYKCKVSNKGLPSSIEKTISKAKGQPREPQVYTLPPCQEEMTKNQVSLWCLVKGFYPSDIAVEWESNGQPENNYKTTPPVLDSDGSFFLYSRLTVDKSRWQEGNVFSCSVMHEALHNHYTQKSLSLSLGGGGSGGGGSEVQLVESGGGFVQAGESLTLSCTSSTLTFTPYRMAWYRQAPGKQRDLVADISSGDGRTTNYADFAKGRFTISRDNIKNTVFLRMTNLKPEDTAVYYCNTFVSFVGIARSWGQGTQVTVSS
chain: ESKYGPPCPPCPAPEAAGGPSVFLFPPKPKDTLMISRTPEVTCVVVDVSQEDPEVQFNWYVDGVEVHNAKTKPREEQFNSTYRVVSVLTVLHQDWLNGKEYKCKVSNKGLPSSIEKTISKAKGQPREPQVCTLPPSQEEMTKNQVSLSCAVKGFYPSDIAVEWESNGQPENNYKTTPPVLDSDGSFFLVSRLTVDKSRWQEGNVFSCSVMHEALHNRFTQKSLSLSL
light: DIQMTQSPSSLSASVGDRVTITCRASQDIRNYLNWYQQKPGKAPKLLIYYTSRLESGVPSRFSGSGSGTDYTLTISSLQPEDFATYYCQQGNTLPWTFGQGTKVEIK
notes: chains put together from parts; IgG4, kappa; not shown: kappa light chain constant domain (CL)
B2: Knob+CEA-Hole-Fab (111) (bispecific antibody, human IgG4 S228P, kappa, F234A L235A)
chain: B1 chain with C131Y, S136C, S148W, A150L, V189Y, R217H, F218Y
heavy: EVQLVESGGGFVQAGESLTLSCTSSTLTFTPYRMAWYRQAPGKQRDLVADISSGDGRTTNYADFAKGRFTISRDNIKNTVFLRMTNLKPEDTAVYYCNTFVSFVGIARSWGQGTQVTVSSESKYGPPCPPCPAPEAAGGPSVFLFPPKPKDTLMISRTPEVTCVVVDVSQEDPEVQFNWYVDGVEVHNAKTKPREEQFNSTYRVVSVLTVLHQDWLNGKEYKCKVSNKGLPSSIEKTISKAKGQPREPQVCTLPPSQEEMTKNQVSLSCAVKGFYPSDIAVEWESNGQPENNYKTTPPVLDSDGSFFLVSRLTVDKSRWQEGNVFSCSVMHEALHNRFTQKSLSLSLGGGGSGGGGSEVKLLESGGGLVQPKGSLKLSCAASGFTFNTYAMNWVRQAPGKGLEWVARIRSKYNNYATYYADSVKDRFTISRDDSQSILYLQMNNLKTEDTAMYYCVRHGNFGNSYVSWFAYWGQGTLVTVSSASTKGPSVFPLAPCSRSTSESTAALGCLVKDYFPEPVTVSWNSGALTSGVHTFPAVLQSSGLYSLSSVVTVPSSSLGTKTYTCNVDHKPSNTKVDKRV
light: QAVVTQESALTTSPGETVTLTCRSSTGAVTTSNYANWVQEKPDHLFTGLIGGTNKRAPGVPARFSGSLIGDKAALTITGAQTEDEAIYFCALWYSNLWVFGGGTKVEIKRTVAAPSVFIFPPSDEQLKSGTASVVCLLNNFYPREAKVQWKVDNALQSGNSQESVTEQDSKDSTYSLSSTLTLSKADYEKHKVYACEVTHQGLSSPVTKSFNRGEC
notes: Anti-CD3 TA1 Fab + anti-CEA VHH C17 on human IgG4 knob-into-hole Fc
B3: 311 (TA6), configuration of FIG. 1X (bispecific antibody, IgG4)
heavy: EVQLVQSGAEVKKPGASVKVSCKASGYTFTNYYIHWVRQAPGQGLEWIGWIYPGDGNTKYNEKFKGRATLTADTSTSTAYLELSSLRSEDTAVYYCARDSYSNYYFDYWGQGTLVTVSSASTKGPSVFPLAPCSRSTSESTAALGCLVKDYFPEPVTVSWNSGALTSGVHTFPAVLQSSGLYSLSSVVTVPSSSLGTKTYTCNVDHKPSNTKVDKRVESKYGPPCPPCPAPEAAGGPSVFLFPPKPKDTLMISRTPEVTCVVVDVSQEDPEVQFNWYVDGVEVHNAKTKPREEQFNSTYRVVSVLTVLHQDWLNGKEYKCKVSNKGLPSSIEKTISKAKGQPREPQVYTLPPCQEEMTKNQVSLWCLVKGFYPSDIAVEWESNGQPENNYKTTPPVLDSDGSFFLYSRLTVDKSRWQEGNVFSCSVMHEALHNHYTQKSLSLSLGGGGSGGGGSEVQLVESGGGFVQAGESLTLSCTSSTLTFTPYRMAWYRQAPGKQRDLVADISSGDGRTTNYADFAKGRFTISRDNIKNTVFLRMTNLKPEDTAVYYCNTFVSFVGIARSWGQGTQVTVSS
chain: B1 chain
light: DIVMTQSPDSLAVSLGERATINCKSSQSLLNSRTRKNYLAWYQQKPGQPPKLLIYWASTRESGVPDRFSGSGSGTDFTLTISSLQAEDVAVYYCTQSFILRTFGQGTKVEIK
notes: as for B1
B4: Knob-Fab+Hole-CEA (109) (bispecific antibody, human IgG4 S228P, kappa, F234A L235A)
heavy: ESKYGPPCPPCPAPEAAGGPSVFLFPPKPKDTLMISRTPEVTCVVVDVSQEDPEVQFNWYVDGVEVHNAKTKPREEQFNSTYRVVSVLTVLHQDWLNGKEYKCKVSNKGLPSSIEKTISKAKGQPREPQVYTLPPCQEEMTKNQVSLWCLVKGFYPSDIAVEWESNGQPENNYKTTPPVLDSDGSFFLYSRLTVDKSRWQEGNVFSCSVMHEALHNHYTQKSLSLSLGGGGSGGGGSEVKLLESGGGLVQPKGSLKLSCAASGFTFNTYAMNWVRQAPGKGLEWVARIRSKYNNYATYYADSVKDRFTISRDDSQSILYLQMNNLKTEDTAMYYCVRHGNFGNSYVSWFAYWGQGTLVTVSSASTKGPSVFPLAPCSRSTSESTAALGCLVKDYFPEPVTVSWNSGALTSGVHTFPAVLQSSGLYSLSSVVTVPSSSLGTKTYTCNVDHKPSNTKVDKRV
chain: ESKYGPPCPPCPAPEAAGGPSVFLFPPKPKDTLMISRTPEVTCVVVDVSQEDPEVQFNWYVDGVEVHNAKTKPREEQFNSTYRVVSVLTVLHQDWLNGKEYKCKVSNKGLPSSIEKTISKAKGQPREPQVCTLPPSQEEMTKNQVSLSCAVKGFYPSDIAVEWESNGQPENNYKTTPPVLDSDGSFFLVSRLTVDKSRWQEGNVFSCSVMHEALHNRFTQKSLSLSLGGGGSGGGGSEVQLVESGGGFVQAGESLTLSCTSSTLTFTPYRMAWYRQAPGKQRDLVADISSGDGRTTNYADFAKGRFTISRDNIKNTVFLRMTNLKPEDTAVYYCNTFVSFVGIARSWGQGTQVTVSS
light: B2 light
notes: as for B2
B5: CEA-Knob+Hole-Fab (110) (bispecific antibody, human IgG4 S228P, kappa, F234A L235A)
chain: EVQLVESGGGFVQAGESLTLSCTSSTLTFTPYRMAWYRQAPGKQRDLVADISSGDGRTTNYADFAKGRFTISRDNIKNTVFLRMTNLKPEDTAVYYCNTFVSFVGIARSWGQGTQVTVSSESKYGPPCPPCPAPEAAGGPSVFLFPPKPKDTLMISRTPEVTCVVVDVSQEDPEVQFNWYVDGVEVHNAKTKPREEQFNSTYRVVSVLTVLHQDWLNGKEYKCKVSNKGLPSSIEKTISKAKGQPREPQVYTLPPCQEEMTKNQVSLWCLVKGFYPSDIAVEWESNGQPENNYKTTPPVLDSDGSFFLYSRLTVDKSRWQEGNVFSCSVMHEALHNHYTQKSLSLSL
heavy: B4 heavy with Y131C, C136S, W148S, L150A, Y189V, H217R, Y218F
light: B2 light
notes: Anti-CD3 TA1 Fab + anti-CEA VHH C17 on human IgG4 knob-into-hole Fc; also called CEA-CD3 bispecific antibody 110
B6: Fab (Light)-Knob+Fab (Heavy)-Hole-CEA (210) (bispecific antibody, human IgG4 S228P, kappa, F234A L235A)
chain: QAVVTQESALTTSPGETVTLTCRSSTGAVTTSNYANWVQEKPDHLFTGLIGGTNKRAPGVPARFSGSLIGDKAALTITGAQTEDEAIYFCALWYSNLWVFGGGTKVEIKRTVAAPSVFIFPPSDEQLKSGTASVVCLLNNFYPREAKVQWKVDNALQSGNSQESVTEQDSKDSTYSLSSTLTLSKADYEKHKVYACEVTHQGLSSPVTKSFNRGECESKYGPPCPPCPAPEAAGGPSVFLFPPKPKDTLMISRTPEVTCVVVDVSQEDPEVQFNWYVDGVEVHNAKTKPREEQFNSTYRVVSVLTVLHQDWLNGKEYKCKVSNKGLPSSIEKTISKAKGQPREPQVYTLPPCQEEMTKNQVSLWCLVKGFYPSDIAVEWESNGQPENNYKTTPPVLDSDGSFFLYSRLTVDKSRWQEGNVFSCSVMHEALHNHYTQKSLSLSL
heavy: EVKLLESGGGLVQPKGSLKLSCAASGFTFNTYAMNWVRQAPGKGLEWVARIRSKYNNYATYYADSVKDRFTISRDDSQSILYLQMNNLKTEDTAMYYCVRHGNFGNSYVSWFAYWGQGTLVTVSSASTKGPSVFPLAPCSRSTSESTAALGCLVKDYFPEPVTVSWNSGALTSGVHTFPAVLQSSGLYSLSSVVTVPSSSLGTKTYTCNVDHKPSNTKVDKRVESKYGPPCPPCPAPEAAGGPSVFLFPPKPKDTLMISRTPEVTCVVVDVSQEDPEVQFNWYVDGVEVHNAKTKPREEQFNSTYRVVSVLTVLHQDWLNGKEYKCKVSNKGLPSSIEKTISKAKGQPREPQVCTLPPSQEEMTKNQVSLSCAVKGFYPSDIAVEWESNGQPENNYKTTPPVLDSDGSFFLVSRLTVDKSRWQEGNVFSCSVMHEALHNRFTQKSLSLSLGGGGSGGGGSEVQLVESGGGFVQAGESLTLSCTSSTLTFTPYRMAWYRQAPGKQRDLVADISSGDGRTTNYADFAKGRFTISRDNIKNTVFLRMTNLKPEDTAVYYCNTFVSFVGIARSWGQGTQVTVSS
notes: Two-chain format; human IgG4 knob-into-hole Fc; also called CEA-CD3 bispecific antibody 210

Target: T1, human CD3ε/δ (ACRO systems, CDD-H52W1) (human, UniProt P07766 23-126; P04234 22-105)
T1 construct: Bought protein; also called human CD3ϵ/CD3δ; human CD3 epsilon/delta antigen
Test: BLI, antibody captured, antigen in solution;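 also: bispecific antibodies captured on AHIC biosensors to a 1.5 nm loading signal, in PBST with 0.02% detergent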
Experimental: The bispecific antibodies were diluted to 5 ag/ml, and 1.5 nm protein was coupled to the surface of the AHIC sensor chip through 0.02% PBST.

Row | Kd [nM] | koff [s⁻¹] | kon [M⁻¹ s⁻¹] | Binder
1 | 3.01 | 0.000997 |  | B1
2 | 2.08 | 0.000694 | 333000 | B2
3 | 3.66 | 0.00101 | 303000 | B3
4 | 1.67 | 0.000485 | 291000 | B4
5 | 1.98 | 0.000565 | 285000 | B5
6 | 2.83 | 0.000689 | 243000 | B6

Target: T2, human CD3 on Jurkat cells (human, UniProt P07766 23-207; P04234 22-171; P09693 23-182)
T2 construct: whole, on cells; CD3 complex as on Jurkat (Clone E6-1) cells; also called CD3 expressing cells (Jurkat)
Test: FACS, Jurkat cells;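 also: flow cytometric binding of bispecific antibodies to Jurkat T cells, threefold serial dilutions incubated half an hour in the cold, EC50 taken from the fitted binding curve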

Row | EC50 | Binder
7 | 4.59 µg/mL and 35.3 nM | B1
8 | 7.6 µg/mL and 58.5 nM | B2
9 | 1.04 µg/mL and 8.02 nM | B3
10 | 12.1 µg/mL and 93 nM | B4
11 | 8.88 µg/mL and 68.3 nM | B5
12 | 2.08 µg/mL and 16 nM | B6
